Drawing on article PMC8279004, this text covers Kd for one substance.

Assay [1] concerns the target unmodified nucleosome (Xenopus). Briefly: native gel or EMSA. (A gel shift assay detects complexes by their altered migration in electrophoresis.)
The target of assay [2] is H4K16ac nucleosome (Xenopus | not stated). Nature of the assay: native gel or EMSA.

On to “catalytic domain of yeast Dot1 (residues 158 to 582) (from UniProt Q04089 158-582) (domain or fragment)”, for which the results for the Kd in assay [1] and in assay [2] were 0.0708 µM and 0.0833 µM, respectively.

In general, Kd refers to the concentration at which binding is half-saturated.
